Experimental data as given in PMC11879619.
Where no end group is shown, it is not given here.

Key:
[1] = target: He-PDFR-A, long splice variant of the pigment-dispersing factor receptor of Hypsibius exemplaris (Hypsibius exemplaris)
[2] = target: He-PDFR-B, short splice variant of the pigment-dispersing factor receptor of Hypsibius exemplaris (Hypsibius exemplaris)

| EC50 of the cAMP response (BRET ratio change of the Epac-L sensor) of HEK293T cells transfected with He-pdfr-A, synthetic peptide at 10^-11 to 10^-5 M [1] [nM] | EC50 of the cAMP response (BRET ratio change of the Epac-L sensor) of HEK293T cells transfected with He-pdfr-B, synthetic peptide at 10^-11 to 10^-5 M [2] [nM] | Binder |
| --- | --- | --- |
| 18 | 1.6 | NSEILNTLIGLPNKLKQR-NH2 [He-PDF-3, pigment-dispersing factor 3 of Hypsibius exemplaris (synthetic mature peptide)] |
| 56 | 21 | NAEVLNSLIGLPRLLKDK-NH2 [He-PDF-1, pigment-dispersing factor 1 of Hypsibius exemplaris (synthetic mature peptide)] |
| 34 | 11 | NSEILNTIIGLPNKLRQR-NH2 [He-PDF-2, pigment-dispersing factor 2 of Hypsibius exemplaris (synthetic mature peptide)] |
